Results: patent publication US20050148516

Tested on: heparan sulfate proteoglycan (HSPG) on HUVEC

| Substance | amount of FGF-2 released from HSPG on HUVEC (FGF-2 ELISA of the supernatant, 4 °C) |
| --- | --- |
| GnT-VΔ73 | GnT-VΔ73 and KRKRKK peptide released FGF-2 |
| GnT-VΔ188 | Like GnT-VΔ73, also GnT-VΔ188 and GnT-VΔ233 released FGF-2 |
